This note sets out measurements from publication PMC5473146.

One data set addresses Dbp2 (Saccharomyces cerevisiae, UniProt P24783 1-546). Nature of the data set: fluorescence anisotropy. A general note: In fluorescence polarisation assays a small probe gives low polarisation when free and higher when bound to something large.
A further data set deals with MBP-DDX5-GST (Homo sapiens, UniProt P17844 1-614). Nature of the data set: fluorescence anisotropy.
Chain of MBP-DDX5-GST (P17844 whole entry): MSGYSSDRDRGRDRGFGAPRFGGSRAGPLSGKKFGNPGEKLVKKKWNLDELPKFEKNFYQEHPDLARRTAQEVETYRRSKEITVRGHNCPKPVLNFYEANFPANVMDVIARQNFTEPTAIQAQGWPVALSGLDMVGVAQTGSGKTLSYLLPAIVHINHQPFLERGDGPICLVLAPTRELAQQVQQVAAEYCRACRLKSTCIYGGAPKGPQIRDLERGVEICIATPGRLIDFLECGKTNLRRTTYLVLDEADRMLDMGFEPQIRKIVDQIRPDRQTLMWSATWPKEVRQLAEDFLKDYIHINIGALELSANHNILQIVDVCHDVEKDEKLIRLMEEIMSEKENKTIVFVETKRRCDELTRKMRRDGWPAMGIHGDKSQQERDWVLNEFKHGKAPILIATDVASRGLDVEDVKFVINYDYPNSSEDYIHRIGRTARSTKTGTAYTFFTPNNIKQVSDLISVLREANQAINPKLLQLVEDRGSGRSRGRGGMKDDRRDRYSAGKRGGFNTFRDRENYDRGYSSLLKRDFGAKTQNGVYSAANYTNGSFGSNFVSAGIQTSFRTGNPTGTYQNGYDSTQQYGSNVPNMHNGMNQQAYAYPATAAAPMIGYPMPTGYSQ

Chain of Dbp2 (P24783 whole entry): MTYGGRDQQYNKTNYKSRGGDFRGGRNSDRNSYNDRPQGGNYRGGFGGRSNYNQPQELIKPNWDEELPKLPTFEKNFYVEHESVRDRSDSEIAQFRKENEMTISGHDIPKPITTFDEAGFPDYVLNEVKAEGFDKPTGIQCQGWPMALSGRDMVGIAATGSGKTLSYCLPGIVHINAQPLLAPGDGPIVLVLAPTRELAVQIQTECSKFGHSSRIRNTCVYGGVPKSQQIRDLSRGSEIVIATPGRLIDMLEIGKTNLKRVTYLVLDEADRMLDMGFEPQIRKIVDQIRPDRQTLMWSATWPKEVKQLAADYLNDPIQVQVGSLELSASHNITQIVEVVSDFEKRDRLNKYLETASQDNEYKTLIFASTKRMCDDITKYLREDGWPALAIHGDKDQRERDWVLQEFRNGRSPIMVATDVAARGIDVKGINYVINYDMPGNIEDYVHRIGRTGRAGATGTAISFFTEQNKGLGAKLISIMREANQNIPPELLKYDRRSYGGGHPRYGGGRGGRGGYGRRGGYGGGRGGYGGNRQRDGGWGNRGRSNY

Consider AGCACCGUAAAGACGC (ssRNA) [16-nt ssRNA (6-FAM)], for which the values for the binding signal with Dbp2 and with MBP-DDX5-GST were ~4 fold weaker than MBP-DDX5-GST and approximately 4 fold tighter than Dbp2, respectively.
